Source: paper PMC11236980, “PARG is essential for Polθ-mediated DNA end-joining by removing repressive poly-ADP-ribose marks”

Legend:
PARP1 = PARP1 (UniProt P09874 1-1014); test: EMSA; 25 nM PARP1; 25 mM Tris-HCl pH 7.5, 5 mM MgCl2, 30 mM NaCl, 5% glycerol, 0.1 mg/mL BSA, 1 mM DTT; PARylation 20 min 37 °C, binding at room temperature; 8% native PAGE 0.5x TBE; details: protein: recombinant; tags: N-terminal His; label: 5'-Cy3; single strand
Polθ-hel = Polθ-hel (human, UniProt O75417 1-894); test: EMSA; PARP1 or NAD+ omitted; 40 nM protein, 10 nM DNA; 25 mM Tris-HCl pH 7.5, 5 mM MgCl2, 30 mM NaCl, 5% glycerol, 0.1 mg/mL BSA, 1 mM DTT; PARylation 20 min 37 °C, binding at room temperature; 8% native PAGE 0.5x TBE; details: protein: recombinant; label: 5'-Cy3; single strand
Chain of Polθ-hel (O75417 1-894): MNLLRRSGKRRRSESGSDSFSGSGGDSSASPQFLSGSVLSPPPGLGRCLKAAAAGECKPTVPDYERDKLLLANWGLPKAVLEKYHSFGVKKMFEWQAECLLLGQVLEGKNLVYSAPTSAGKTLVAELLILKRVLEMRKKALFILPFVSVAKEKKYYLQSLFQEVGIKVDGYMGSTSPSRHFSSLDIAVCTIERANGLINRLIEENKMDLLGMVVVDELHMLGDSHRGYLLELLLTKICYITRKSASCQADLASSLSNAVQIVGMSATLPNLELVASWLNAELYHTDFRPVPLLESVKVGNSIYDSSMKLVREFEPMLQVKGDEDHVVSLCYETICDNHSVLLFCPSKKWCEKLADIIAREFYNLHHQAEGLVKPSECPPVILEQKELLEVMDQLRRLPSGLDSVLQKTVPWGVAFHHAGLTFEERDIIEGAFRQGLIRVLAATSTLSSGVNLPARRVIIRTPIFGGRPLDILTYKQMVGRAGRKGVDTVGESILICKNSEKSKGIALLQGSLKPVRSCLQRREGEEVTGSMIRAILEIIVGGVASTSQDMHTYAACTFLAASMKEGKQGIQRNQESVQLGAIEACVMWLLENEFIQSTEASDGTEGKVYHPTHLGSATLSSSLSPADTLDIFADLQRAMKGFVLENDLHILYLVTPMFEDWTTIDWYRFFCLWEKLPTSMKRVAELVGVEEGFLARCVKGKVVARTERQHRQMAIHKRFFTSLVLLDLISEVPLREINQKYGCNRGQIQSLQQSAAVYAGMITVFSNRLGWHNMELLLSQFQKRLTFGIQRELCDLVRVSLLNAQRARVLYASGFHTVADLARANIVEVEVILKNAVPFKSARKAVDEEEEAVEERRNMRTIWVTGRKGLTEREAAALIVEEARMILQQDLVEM

Chain of PARP1 (P09874 whole entry): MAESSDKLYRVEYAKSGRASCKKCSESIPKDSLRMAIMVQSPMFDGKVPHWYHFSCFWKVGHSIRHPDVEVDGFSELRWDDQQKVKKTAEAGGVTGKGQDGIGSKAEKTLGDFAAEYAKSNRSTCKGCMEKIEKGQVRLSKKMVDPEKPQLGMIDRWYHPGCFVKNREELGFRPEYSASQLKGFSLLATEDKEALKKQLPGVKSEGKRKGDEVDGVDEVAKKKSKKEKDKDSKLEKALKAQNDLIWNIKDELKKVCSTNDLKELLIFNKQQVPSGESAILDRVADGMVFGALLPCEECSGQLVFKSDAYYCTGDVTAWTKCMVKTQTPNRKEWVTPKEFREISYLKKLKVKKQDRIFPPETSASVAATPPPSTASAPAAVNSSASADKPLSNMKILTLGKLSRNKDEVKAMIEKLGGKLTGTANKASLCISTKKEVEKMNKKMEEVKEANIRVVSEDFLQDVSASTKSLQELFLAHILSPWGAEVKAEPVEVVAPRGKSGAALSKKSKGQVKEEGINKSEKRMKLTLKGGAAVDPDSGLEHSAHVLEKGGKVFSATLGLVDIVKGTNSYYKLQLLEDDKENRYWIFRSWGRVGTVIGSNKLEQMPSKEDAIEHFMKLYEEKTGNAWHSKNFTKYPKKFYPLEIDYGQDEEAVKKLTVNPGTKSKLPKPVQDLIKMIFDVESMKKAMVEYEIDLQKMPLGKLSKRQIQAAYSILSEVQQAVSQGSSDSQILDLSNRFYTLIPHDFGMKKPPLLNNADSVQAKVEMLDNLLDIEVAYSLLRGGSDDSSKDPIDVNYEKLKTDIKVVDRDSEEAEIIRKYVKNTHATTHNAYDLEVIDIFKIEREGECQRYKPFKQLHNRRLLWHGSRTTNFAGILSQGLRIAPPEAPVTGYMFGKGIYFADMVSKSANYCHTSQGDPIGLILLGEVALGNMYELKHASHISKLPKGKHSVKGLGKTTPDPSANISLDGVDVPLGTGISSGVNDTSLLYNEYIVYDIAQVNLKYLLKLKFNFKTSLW

Binder: TTTTTTTTTTTTTTTTTTTTTTTTTTTTT (ssDNA) [RP316-Cy3]
- binding result (PARP1): no binding
- binding result (Polθ-hel): binds
